Reference: article PMC2173330 (The Journal of Cell Biology, 2002)

Biological target: T1, XSMC1 (Xenopus (endogenous in egg extracts), UniProt O93308 1-1232)
T1 sequence: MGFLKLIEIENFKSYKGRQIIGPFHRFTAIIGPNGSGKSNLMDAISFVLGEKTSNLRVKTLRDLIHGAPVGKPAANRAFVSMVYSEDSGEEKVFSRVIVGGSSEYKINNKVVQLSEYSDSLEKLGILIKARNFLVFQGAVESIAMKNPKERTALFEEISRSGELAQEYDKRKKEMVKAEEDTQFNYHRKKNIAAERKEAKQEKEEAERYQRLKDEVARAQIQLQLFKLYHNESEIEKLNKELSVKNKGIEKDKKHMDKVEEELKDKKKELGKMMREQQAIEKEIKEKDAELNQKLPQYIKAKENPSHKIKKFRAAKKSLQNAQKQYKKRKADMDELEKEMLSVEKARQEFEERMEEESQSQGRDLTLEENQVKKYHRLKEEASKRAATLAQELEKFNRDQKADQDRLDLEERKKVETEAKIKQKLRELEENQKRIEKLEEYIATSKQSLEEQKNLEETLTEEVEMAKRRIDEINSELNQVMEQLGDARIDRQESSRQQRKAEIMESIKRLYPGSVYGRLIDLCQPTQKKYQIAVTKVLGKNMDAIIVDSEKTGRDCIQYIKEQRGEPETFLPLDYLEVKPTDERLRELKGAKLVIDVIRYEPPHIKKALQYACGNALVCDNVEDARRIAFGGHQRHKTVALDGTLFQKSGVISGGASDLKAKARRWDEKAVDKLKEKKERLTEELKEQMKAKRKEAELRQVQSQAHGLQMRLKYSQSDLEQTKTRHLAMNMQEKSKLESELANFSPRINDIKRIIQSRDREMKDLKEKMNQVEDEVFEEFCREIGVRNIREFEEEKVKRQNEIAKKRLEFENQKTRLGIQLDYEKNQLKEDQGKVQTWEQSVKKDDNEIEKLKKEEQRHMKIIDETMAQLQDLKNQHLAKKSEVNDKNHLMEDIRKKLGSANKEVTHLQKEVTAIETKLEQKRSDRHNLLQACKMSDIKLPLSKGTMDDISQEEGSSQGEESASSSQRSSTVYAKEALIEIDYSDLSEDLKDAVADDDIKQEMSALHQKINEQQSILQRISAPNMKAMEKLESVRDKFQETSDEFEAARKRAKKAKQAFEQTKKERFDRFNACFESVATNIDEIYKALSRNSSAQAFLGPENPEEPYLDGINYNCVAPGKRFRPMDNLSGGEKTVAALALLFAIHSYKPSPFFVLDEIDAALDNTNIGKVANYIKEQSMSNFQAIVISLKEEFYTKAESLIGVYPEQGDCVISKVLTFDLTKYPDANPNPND
Test: rotary-shadowing electron microscopy

B1: XSMC3 (natural protein)
chain: MYIKQVIIQGFRSYRDQTIVDPFSSKHNVIVGRNGSGKSNFFYAIQFVLSDEFSHLRPEQRLALLHEGTGPRVISAFVEIIFDNSDNRLPIDKEEVSLRRVIGAKKDQYFLDKKMVTKNDVMNLLESAGFSRSNPYYIVKQGKINQMATAPDSQRLKLLREVAGTRVYDERKEESISLMKETEGKRDKINELLKYIEERLHTLEEEKEELAQYQKWDKMRRALEYTIYNQELNETRAKLDELSSKRETSGEKSRQLRDAQQDARDKMEEIERQVRELKSKISAMKEEKEQLSSERQEQIKQRTKLELKTKDLQDELAGNSEQRKRLLKERQKLLEKIEEKQKELAETEPKFSSVKQKEESGIARLAQATQERTDLYAKQGRGSQFTSKEERDKWIKKELKSLDQAINDKKRQIAAINKDLEETEVNKEKNLEQYTKLDQDLNEVKTRVEELDKKYYEVKNKKDELQSERNYLWREENAEQQSLAAKREDLEKKQQLLRAATGKAILNGIDSINKVLEHFRRKGINQHVINGYHGIVMNNFDCEPAFYTCVEVTAGNRLFYHIVESDEVSTKILMEFNKMNLPGEVTFLPLNKLDVRDTAYPETNDAIPMISKLRYNLRFDKAFKHVFGKTLICRSMEVSTQLARAFTMDCITLEGDQVSHRGALTGGYYDTRKSRLELQKDVRKVEDELHALEAKLNENLRRNIERINNEIDQLMNQMQQIETQQRKFKASRDSILSEMKMLKEKRQQSEKTFMPKQRSLQSLEASLHAMESTRESLKAELGTDLLSQLSLEDQKRVDALNDEIRQLQQENRQLLNERIKLEGTITRVETYLNENLRKRLDQVEQELNELRETEGGTVLTATTSELEAINKRVKDTLARSEGLDITIDKTEVESKDLVKSMDRWKNMEKDHMDAINHDTKELEKMTNRQGMLLKKKEECMKKIRELGSLPQEAFEKYQTLSLKQLFRKLEQCNTELKKYSHVNKKALDQFVNFSEQKEKLIKRQEELDRGHKSIMELMNVLELRKYEAIQLTFKQVSKNFSEVFQKLVPGGKATLVMKKGDVEGSQSQDEGEGSTQSSVPSVDQFTGVGIRVSFTGKQAEMREMQQLSGGQKSLVALALIFAIQKCDPAPFYLFDEIDQALDAQHRKAVSDMIMELASHAQFITTTFRPELLESADKFYGVKFRNKVSHIDVITAEQAKDFVEDDTTHG
binding result: binds
